This is an account of results in article PMC11074299.

The assay has as its target Casp-8^tDED_F122G/L123G mutant (human) (UniProt Q14790). Briefly: crystal structure; FA^FuL_H9G-C8^FGLG-CF^H7G complex; proteins individually expressed in E. coli, complex co-purified by Ni-NTA and SEC (80 mM NaCl, 20 mM Tris pH 8.0); hanging drop, 20 °C; MR-SAD; 3.1 Å; one 1:5:4 complex per asymmetric unit; FADD DD not visible.

On to “Casp-8^tDED_F122G/L123G mutant (from UniProt Q14790 1-185) (domain or fragment)”, for which the stoichiometry N – broadly, a count of units in the complex or per binding partner – came to 5.
